{
  "source": "patent US20060257366A1",
  "biological_target": "CH-296 retronectin fragment (UniProt P02751)",
  "sequence (P02751 1361-2107)": "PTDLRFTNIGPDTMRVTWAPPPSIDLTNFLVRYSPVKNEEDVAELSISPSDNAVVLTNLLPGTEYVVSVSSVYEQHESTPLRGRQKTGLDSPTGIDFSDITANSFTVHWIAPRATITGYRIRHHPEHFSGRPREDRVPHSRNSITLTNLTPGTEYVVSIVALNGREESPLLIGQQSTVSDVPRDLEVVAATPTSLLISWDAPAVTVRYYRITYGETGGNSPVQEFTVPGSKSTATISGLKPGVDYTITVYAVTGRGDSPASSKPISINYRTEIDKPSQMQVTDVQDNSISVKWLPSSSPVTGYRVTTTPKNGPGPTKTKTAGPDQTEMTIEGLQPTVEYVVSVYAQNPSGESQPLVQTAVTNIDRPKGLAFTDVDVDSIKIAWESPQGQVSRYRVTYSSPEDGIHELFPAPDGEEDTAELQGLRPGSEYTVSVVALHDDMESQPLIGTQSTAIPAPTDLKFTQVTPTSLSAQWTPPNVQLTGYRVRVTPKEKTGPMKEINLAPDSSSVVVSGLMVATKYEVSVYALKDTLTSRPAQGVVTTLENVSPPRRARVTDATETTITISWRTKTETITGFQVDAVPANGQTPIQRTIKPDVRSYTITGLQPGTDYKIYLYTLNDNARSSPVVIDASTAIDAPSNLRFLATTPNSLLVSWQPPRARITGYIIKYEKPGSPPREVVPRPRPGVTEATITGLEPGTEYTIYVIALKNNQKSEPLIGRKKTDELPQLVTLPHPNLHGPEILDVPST",
  "experiment": "cell-based or functional assay",
  "data": [
    {"substance": "RD114/TR chimeric glycoprotein", "values": [
      {"measurement": "transduction efficiency of human CD34+ cells on retronectin-coated plates (% GFP+ cells)", "result": 10, "unit": "fold"}
    ]}
  ]
}
